# Experiments:
# Fes = Fes (UniProt P07332); experiment: phosphorylation enrichment, bacterial display (enrichment ratio); higher = better substrate or ligand; peptides without Tyr show the background
# c-Abl (mouse) = experiment: as above
# Jak2 = Jak2 (UniProt O60674); experiment: as above
# Fer (mouse) = experiment: as above
# MERTK = MERTK (UniProt Q12866); experiment: as above
# Fyn = Fyn (UniProt P06241); experiment: as above
# FGFR1 = FGFR1 (UniProt P11362); experiment: as above
# AncSZ = experiment: as above
# c-Src = experiment: as above
# FGFR3 = FGFR3 (UniProt P22607); experiment: as above
# EPHB2 = EPHB2 (UniProt P29323); experiment: as above
# Hck = Hck (UniProt P08631); experiment: as above
# EPHB1 = EPHB1 (UniProt P54762); experiment: as above
# SHP2-C SH2 = experiment: SH2 binding enrichment of the phosphorylated peptide, bacterial display (enrichment ratio); higher = better substrate or ligand; peptides without Tyr show the background
# c-Src SH2 = experiment: as above
# Grb2 SH2 = Grb2 SH2 (UniProt P62993); experiment: as above
# 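Wherever SH2 binding enrichment of the phosphorylated peptide, bacterial display is given: peptide library displayed on the E. coli surface as eCPX fusions, selected cells deep-sequenced, score is each peptide's frequency after selection divided by its frequency in the input.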
# 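Wherever phosphorylation enrichment, bacterial display is given: 11-residue human phosphosite peptides and single-mutation variants displayed on the E. coli surface, counted by deep sequencing, each peptide's frequency after selection divided by its frequency in the unselected input library; frequency after pTyr selection over input frequency; kinase dosed for 20-30% of maximal phosphorylation in three min.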
# Sequence of EPHB2 (P29323 whole entry, looked up): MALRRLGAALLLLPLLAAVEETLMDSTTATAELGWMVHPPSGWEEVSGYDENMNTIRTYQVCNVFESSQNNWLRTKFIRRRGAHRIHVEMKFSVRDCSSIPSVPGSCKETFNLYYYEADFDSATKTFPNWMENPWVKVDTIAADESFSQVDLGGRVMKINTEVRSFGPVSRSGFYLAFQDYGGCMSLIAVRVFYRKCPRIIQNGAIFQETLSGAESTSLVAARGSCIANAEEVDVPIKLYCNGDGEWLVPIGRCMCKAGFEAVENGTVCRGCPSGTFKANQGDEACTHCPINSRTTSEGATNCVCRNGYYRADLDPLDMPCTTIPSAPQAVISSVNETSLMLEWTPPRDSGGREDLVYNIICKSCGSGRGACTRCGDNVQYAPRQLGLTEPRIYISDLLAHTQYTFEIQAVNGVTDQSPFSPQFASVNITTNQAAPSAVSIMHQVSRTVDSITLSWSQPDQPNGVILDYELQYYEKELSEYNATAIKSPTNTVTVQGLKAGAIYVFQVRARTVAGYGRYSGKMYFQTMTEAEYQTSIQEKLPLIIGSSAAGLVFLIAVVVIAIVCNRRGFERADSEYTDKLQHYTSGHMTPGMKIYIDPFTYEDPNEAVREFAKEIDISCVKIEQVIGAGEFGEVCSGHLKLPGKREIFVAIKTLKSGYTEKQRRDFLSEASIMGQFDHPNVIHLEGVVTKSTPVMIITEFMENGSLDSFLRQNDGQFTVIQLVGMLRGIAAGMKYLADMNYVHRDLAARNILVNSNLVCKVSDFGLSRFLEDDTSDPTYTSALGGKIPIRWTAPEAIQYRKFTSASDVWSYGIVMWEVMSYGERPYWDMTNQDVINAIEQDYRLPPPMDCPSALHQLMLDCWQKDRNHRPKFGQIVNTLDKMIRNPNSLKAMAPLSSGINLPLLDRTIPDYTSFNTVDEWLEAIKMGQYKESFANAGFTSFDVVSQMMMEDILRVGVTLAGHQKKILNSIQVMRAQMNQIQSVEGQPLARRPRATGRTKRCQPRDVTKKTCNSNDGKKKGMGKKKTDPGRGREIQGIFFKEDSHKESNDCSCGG
# Sequence of MERTK (Q12866 whole entry, looked up): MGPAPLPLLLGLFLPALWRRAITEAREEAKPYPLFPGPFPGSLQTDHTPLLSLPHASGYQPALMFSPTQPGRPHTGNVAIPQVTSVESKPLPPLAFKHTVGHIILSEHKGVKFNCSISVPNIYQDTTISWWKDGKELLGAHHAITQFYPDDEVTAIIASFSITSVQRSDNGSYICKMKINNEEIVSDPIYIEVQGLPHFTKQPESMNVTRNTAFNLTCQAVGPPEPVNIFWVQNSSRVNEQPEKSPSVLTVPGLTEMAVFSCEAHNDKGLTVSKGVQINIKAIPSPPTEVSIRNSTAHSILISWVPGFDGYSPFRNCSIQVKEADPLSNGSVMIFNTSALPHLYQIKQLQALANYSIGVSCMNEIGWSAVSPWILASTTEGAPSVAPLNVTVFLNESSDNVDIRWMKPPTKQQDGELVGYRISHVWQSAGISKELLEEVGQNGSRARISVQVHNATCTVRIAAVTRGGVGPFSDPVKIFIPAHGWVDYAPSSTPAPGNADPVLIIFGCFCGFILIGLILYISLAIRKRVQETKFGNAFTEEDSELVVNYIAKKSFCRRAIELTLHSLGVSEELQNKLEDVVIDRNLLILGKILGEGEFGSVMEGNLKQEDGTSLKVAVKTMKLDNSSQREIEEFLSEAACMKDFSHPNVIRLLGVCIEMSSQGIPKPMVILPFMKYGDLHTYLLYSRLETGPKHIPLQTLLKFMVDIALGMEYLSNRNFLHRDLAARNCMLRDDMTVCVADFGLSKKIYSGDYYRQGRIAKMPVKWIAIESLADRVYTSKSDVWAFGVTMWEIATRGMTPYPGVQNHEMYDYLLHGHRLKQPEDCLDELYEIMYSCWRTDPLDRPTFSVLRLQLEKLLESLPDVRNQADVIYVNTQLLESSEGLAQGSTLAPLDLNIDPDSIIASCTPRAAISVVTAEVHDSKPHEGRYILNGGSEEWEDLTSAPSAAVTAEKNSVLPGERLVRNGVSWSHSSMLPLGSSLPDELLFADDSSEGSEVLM
# Sequence of FGFR1 (P11362 whole entry, looked up): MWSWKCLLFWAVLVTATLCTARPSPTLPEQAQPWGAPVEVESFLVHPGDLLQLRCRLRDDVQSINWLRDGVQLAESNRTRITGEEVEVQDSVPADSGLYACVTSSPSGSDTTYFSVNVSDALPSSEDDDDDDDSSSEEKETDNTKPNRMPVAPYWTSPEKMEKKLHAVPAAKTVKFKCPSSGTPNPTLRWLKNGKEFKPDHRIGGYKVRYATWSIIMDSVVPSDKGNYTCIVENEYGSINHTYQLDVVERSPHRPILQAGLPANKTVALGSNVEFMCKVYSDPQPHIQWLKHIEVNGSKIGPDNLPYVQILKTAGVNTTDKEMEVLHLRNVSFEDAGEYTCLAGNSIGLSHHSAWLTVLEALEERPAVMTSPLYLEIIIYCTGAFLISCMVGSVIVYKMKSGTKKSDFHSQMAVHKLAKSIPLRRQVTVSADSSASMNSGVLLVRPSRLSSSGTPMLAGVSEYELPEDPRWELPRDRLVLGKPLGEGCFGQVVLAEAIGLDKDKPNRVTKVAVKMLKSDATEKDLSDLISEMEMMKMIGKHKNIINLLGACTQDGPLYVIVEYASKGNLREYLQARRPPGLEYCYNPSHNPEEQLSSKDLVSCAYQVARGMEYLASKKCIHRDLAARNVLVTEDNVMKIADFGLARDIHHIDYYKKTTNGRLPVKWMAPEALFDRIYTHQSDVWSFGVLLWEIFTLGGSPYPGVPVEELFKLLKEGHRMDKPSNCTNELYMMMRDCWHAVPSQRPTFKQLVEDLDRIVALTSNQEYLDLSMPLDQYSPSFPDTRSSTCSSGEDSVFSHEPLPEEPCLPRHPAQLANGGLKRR
# Sequence of Fyn (P06241 whole entry, looked up): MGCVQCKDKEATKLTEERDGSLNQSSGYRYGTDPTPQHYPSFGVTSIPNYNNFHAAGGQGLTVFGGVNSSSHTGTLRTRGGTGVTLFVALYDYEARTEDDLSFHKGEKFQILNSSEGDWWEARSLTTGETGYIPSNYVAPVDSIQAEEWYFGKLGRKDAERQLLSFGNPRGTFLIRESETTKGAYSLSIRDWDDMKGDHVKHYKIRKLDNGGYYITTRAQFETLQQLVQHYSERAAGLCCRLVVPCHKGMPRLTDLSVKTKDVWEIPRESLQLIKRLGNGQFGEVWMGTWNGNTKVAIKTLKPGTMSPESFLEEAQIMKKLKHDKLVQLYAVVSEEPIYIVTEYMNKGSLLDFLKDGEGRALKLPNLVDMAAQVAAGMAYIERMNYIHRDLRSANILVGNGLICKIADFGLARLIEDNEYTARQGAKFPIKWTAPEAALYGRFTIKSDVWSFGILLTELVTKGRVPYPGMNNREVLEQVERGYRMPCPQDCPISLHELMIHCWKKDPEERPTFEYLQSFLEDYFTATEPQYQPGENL
# Sequence of FGFR3 (P22607 whole entry, looked up): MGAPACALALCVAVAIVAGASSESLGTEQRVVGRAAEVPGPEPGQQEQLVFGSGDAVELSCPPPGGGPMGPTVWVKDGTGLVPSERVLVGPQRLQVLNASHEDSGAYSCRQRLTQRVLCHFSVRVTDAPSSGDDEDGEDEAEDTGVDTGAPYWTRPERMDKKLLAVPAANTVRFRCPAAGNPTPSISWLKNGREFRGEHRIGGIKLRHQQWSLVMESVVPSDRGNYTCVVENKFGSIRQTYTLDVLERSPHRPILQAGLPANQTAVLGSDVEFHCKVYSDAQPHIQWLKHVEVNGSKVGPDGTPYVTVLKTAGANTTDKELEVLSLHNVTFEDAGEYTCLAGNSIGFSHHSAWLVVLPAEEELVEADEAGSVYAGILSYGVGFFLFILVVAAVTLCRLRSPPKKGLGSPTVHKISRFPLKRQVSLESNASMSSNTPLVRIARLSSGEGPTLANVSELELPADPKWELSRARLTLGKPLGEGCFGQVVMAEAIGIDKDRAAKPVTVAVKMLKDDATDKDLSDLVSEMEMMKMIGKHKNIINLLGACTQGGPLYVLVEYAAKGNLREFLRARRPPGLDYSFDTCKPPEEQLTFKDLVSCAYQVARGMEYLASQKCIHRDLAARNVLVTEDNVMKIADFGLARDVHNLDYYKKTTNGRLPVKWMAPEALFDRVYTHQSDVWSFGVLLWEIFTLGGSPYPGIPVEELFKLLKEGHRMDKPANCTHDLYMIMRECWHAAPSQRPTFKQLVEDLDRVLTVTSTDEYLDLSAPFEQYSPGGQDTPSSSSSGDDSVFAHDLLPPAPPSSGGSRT
# Sequence of Hck (P08631 whole entry, looked up): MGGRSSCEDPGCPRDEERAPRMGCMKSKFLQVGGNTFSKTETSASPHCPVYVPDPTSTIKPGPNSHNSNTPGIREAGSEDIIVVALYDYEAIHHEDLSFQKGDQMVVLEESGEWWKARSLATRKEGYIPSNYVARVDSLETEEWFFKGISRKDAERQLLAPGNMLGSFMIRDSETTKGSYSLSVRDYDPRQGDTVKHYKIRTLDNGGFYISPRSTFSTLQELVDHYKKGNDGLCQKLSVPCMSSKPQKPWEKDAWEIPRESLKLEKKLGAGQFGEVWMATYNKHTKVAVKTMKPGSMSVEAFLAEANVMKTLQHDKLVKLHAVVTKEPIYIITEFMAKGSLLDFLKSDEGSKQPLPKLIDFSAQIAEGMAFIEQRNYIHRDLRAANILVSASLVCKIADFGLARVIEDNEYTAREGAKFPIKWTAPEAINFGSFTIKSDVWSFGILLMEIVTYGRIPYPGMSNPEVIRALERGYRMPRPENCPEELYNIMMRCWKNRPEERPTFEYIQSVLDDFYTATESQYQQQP
SH2 binding enrichment (SHP2-C SH2),SH2 binding enrichment (c-Src SH2),SH2 binding enrichment (Grb2 SH2),Sequence,phosphorylation enrichment (Fes),phosphorylation enrichment (c-Abl (mouse)),phosphorylation enrichment (Jak2),phosphorylation enrichment (Fer (mouse)),phosphorylation enrichment (MERTK),phosphorylation enrichment (Fyn),phosphorylation enrichment (FGFR1),phosphorylation enrichment (AncSZ),phosphorylation enrichment (c-Src),phosphorylation enrichment (FGFR3),phosphorylation enrichment (EPHB2),phosphorylation enrichment (Hck),phosphorylation enrichment (EPHB1)
0.772,0.415,0.694,VGGRIYIDDAL [PKLR_Y218_G222A],1.06,0.737,0.767,0.547,0.402,0.462,0.542,0.86,0.419,0.612,0.497,0.486,0.51
0.559,3.04,0.797,PGAGHYEDTIL [ALK_Y1604],1.16,0.765,0.896,6.12,0.597,0.809,0.664,1.15,0.391,0.881,0.597,0.786,0.871
0.617,0.555,0.756,MKDLTYSSLCF [ALOX5_Y446_A447S],1.35,1.53,1.21,3.84,4.91,6.62,0.997,1.48,5.91,1.14,2.67,6.78,2.89
0.756,0.671,0.94,DRLPSYLDKVR [KRT12_Y139_A137P],0.665,0.494,0.616,0.436,0.656,0.454,0.408,0.62,0.479,0.485,0.331,0.794,0.371
0.725,0.586,0.819,NWGSPYKSNGC [ZNF347_Y261],1.09,0.667,0.759,0.48,0.41,0.373,0.48,0.894,0.52,0.546,0.569,0.52,0.459
0.651,0.495,0.826,FARNSYVAGQY [G6PD_Y107],0.544,0.449,0.502,0.347,0.405,0.389,0.403,0.516,0.535,0.415,0.4,0.385,0.322
0.864,0.87,0.948,INMKKYCKKDY [NTN1_Y490],0.912,0.824,0.698,0.434,0.402,0.391,0.45,0.626,0.401,0.592,0.298,0.461,0.424
1.39,1.21,1.98,FKWAVYCIIGR [NUP93_Y391_R388W_YF],1.28,0.902,1.03,1.02,0.534,0.554,0.614,1.28,0.652,0.714,0.673,0.699,1.19
0.814,14.8,0.817,ALEHKYWALGQ [MAP1A_Y1555_Q1553H],0.966,0.652,0.709,0.492,0.596,0.801,0.601,0.859,1.39,0.582,0.539,0.621,0.546
0.721,0.769,1.11,YVKEPYIQSRF [HIPK4_Y175],0.77,0.457,0.507,0.411,0.53,0.469,0.491,0.628,0.329,0.528,0.465,0.416,0.406
0.697,0.688,1.06,RESYKYFPSSL [CXXC1_Y218],0.841,0.77,1.15,0.82,0.69,0.843,0.51,1.18,0.861,1.09,0.475,0.685,0.651
0.667,0.625,1.57,LDFPEYDGVDR [CASQ1_Y43],2.01,1.48,2,0.719,0.556,0.75,0.59,2.6,1.5,1.37,0.865,1.11,0.633
0.633,0.522,0.771,LQKPMYEVQWK [KIT_Y553],1.32,1.36,1.42,0.83,1.28,0.81,0.851,1.29,0.617,1.49,0.912,0.788,2.63
0.727,0.5,0.944,GFILMYDITNK [RAB3C_Y110_E115K],2.04,1.21,1.83,0.724,0.835,0.529,0.617,1.59,0.575,1.17,1.14,0.591,1.15
0.682,0.436,0.713,VDLIVYLWTNP [TK2_Y181_R183W],1.29,0.897,1.21,0.841,0.397,0.421,0.483,1.15,0.423,0.955,0.501,0.456,0.643
0.75,0.574,0.838,VAFVYYKSIGP [ADGRL4_Y302],1.6,0.907,1.3,0.658,0.442,0.432,0.656,1.41,0.465,0.872,0.653,0.524,0.678

# Source: the supplement of paper PMC10065799, “High-throughput profiling of sequence recognition by tyrosine kinases and SH2 domains using bacterial peptide display” (eLife, 2023)
